How the values were obtained:
Assay in all cases: cell-based or functional assay
[1] = target: human complement component C9 (human, UniProt P02748 22-559)
[2] = target: human complement component C8, alpha chain (human, UniProt P07357 31-584)
[3] = target: human complement component C8, beta chain (human, UniProt P07358 55-591)

Measured: reduction of alternative-pathway complement-mediated lysis of rabbit erythrocytes by 6% normal guinea pig serum, 0 to 40 µg rTs-Pmy (55.7% at 10 µg)

Chain of human complement component C8, alpha chain (P07357 31-584): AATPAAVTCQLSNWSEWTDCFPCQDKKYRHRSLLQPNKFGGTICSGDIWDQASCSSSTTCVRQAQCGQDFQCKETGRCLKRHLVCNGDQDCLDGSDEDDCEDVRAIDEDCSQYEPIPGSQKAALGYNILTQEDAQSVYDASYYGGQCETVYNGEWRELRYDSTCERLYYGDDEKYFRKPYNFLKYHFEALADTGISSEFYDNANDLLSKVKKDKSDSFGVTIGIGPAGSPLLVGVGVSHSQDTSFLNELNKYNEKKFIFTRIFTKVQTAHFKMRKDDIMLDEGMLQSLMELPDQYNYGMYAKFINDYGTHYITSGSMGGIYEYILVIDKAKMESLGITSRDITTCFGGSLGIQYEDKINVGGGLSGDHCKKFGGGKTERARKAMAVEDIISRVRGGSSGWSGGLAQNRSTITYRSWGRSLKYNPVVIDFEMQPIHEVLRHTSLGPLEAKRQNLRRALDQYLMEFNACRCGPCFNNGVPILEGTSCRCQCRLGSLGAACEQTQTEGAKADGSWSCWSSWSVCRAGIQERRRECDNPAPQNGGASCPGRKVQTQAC
Chain of human complement component C9 (P02748 22-559): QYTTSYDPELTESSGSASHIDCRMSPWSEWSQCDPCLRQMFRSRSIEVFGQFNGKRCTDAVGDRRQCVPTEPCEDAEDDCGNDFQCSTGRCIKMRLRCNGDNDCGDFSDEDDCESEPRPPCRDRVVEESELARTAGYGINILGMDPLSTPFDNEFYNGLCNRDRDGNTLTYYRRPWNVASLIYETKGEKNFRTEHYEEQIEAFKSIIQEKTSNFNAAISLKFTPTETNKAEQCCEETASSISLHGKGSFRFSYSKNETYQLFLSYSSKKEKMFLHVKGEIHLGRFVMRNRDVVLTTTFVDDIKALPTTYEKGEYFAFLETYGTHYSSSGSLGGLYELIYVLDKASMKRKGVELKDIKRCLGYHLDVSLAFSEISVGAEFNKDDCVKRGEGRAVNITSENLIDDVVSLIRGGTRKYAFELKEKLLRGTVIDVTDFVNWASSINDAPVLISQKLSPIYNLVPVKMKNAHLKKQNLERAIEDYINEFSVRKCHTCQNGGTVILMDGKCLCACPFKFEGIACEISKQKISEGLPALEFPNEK
Chain of human complement component C8, beta chain (P07358 55-591): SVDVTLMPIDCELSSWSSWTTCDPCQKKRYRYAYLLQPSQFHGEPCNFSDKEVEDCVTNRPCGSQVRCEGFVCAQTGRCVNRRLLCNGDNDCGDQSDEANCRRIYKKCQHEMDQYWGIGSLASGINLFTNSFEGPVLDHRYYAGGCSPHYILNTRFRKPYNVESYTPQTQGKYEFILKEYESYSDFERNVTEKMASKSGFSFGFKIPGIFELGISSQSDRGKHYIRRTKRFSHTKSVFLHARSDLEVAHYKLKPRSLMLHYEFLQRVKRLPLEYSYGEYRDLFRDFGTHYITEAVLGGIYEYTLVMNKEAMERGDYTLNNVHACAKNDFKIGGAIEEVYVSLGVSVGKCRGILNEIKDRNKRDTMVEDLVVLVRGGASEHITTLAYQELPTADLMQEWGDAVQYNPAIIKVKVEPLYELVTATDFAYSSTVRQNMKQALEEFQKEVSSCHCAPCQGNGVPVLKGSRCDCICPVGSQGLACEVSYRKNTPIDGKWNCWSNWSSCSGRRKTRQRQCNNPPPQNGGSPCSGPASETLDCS

B1: recombinant Trichinella spiralis paramyosin (natural protein)
chain: MSLYRSPSASVMRSASMLSRSGGFDAYGFGGYGAPSLNVADLGSLTRLEDKIRLLQDDLETERELRNRIERERADLSCQLISLTDRLEEAEGTTDAQIDANRKRESELQKLRKILEDSQLESEDSLNQLRKKHQESLLDYQQQIEQLQKKNSKIDRERQRLQHEVIELTAGIDQMQKDKHAAEKAAEKHEAHARELQNRVDDLAKNLNDLASQRQRLQQENNDLMKELHDVKVQMENIQHVKTQLAQQLEEARRRLEDAERERSQMQTQLHQMQLELDSIQGALEEESSARAEAEHKLSLANTEISQWKSKFDAEVSLHQEEVDDLRKKMIQKQAEYEEQIEIMLQKISQLEKAKSRLQSEVEVLIVDLEKAQSTIAILERQKEQLERMVAEMKTRLDEVTQELEATQRELRATQAELQKMKHLYEKAVEQKEALARENKKLQDDLHEAKEALADANRKLHELDLENARLAGEIRELQIALKEAEAARRDAESRAQRAVAELQALRVEMERRLQEKEEEMEALRKNMQFEIDRLAAALADAEARMKAEISRLKKKYQAEIAELEMTIDNLNRANLEAQKTIKKQADQLRALQSSFEDCQRQLQQTLDQYAIAQRKLSALSAELEDCKSALDTAIRVRKQAEADLEEAQGKIADLVSLNNNLTAIKGKLETDLSTCQADLDETTKELRAADDRANRAQQDAVRAMEQLHEEQEHSMKIDAMRKALEEHVKQLQVQIQEAEAAALLGGKRVIAKLETRIRDLEMALDEESRRHKETQACLRKKDRRVKEMQMQVDEEHKNFVMAQDTAERLAEKLNIYKRQLTEAESLTMQNLQRVRRYQHELEDAEGRAEQAESSLHLIRAKHRSSVSMGKSLSSKVYVMEEGHEY
91.9 % reduction of lysis: all assays above

Source: PMC3130009, “Trichinella spiralis Paramyosin Binds to C8 and C9 and Protects the Tissue-Dwelling Nematode from Being Attacked by Host Complement” (PLoS Neglected Tropical Diseases, 2011)
